Results on six sequences are retold here after the supplement of paper PMC5998384.

Data set [1] concerns HeLa Kyoto. Description: solubility in G1/S (NP-40 vs SDS abundance) (log2 ratio); higher = more soluble. The conditions noted are these: cell cycle stage: G1/S.
For data set [2], the system named is HeLa Kyoto. The data set is described as follows: melting temperature (median over replicates), in situ; higher = more thermally stable.
Data set [3] has as its system HeLa Kyoto. Description: solubility change mitosis vs G1/S (difference of NP-40 vs SDS log2 ratios) (log2 ratio difference); higher = more soluble in mitosis.
For data set [4], the system named is HeLa Kyoto. The data set is described as follows: thermal stability score vs G1/S (z-score of summed log2 fold changes over temperatures); higher = more thermally stable than in G1/S.
Where [5] appears, read: cell cycle stage: early G1 (4.5 h after nocodazole release).
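Wherever melting temperature (median over replicates), in situ is given: HeLa Kyoto cells synchronized by double thymidine or nocodazole block, proteins quantified by TMT10plex mass spectrometry, three independent biological replicates.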
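Wherever solubility change mitosis vs G1/S (difference of NP-40 vs SDS log2 ratios) is given: synchronized HeLa Kyoto cells (double thymidine block for G1/S, nocodazole release for mitosis), protein amounts in NP-40 versus SDS lysates quantified by mass spectrometry, three biological replicates.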
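Wherever solubility in G1/S (NP-40 vs SDS abundance) is given: HeLa Kyoto cells arrested at G1/S by double thymidine block, proteins quantified by TMT10plex mass spectrometry in mild NP-40 versus SDS extracts, three biological replicates.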
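Wherever thermal stability score vs G1/S (z-score of summed log2 fold changes over temperatures) is given: synchronized HeLa Kyoto cells, proteins quantified by TMT10plex mass spectrometry, three biological replicates, mitosis taken 0.5 h after nocodazole release, G1/S directly after double thymidine block.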

On to “MAMAEGERTECAEPPRDEPPADGALKRAEELKTQANDYFKAKDYENAIKFYSQAIELNPSNAIYYGNRSLAYLRTECYGYALGDATRAIELDKKYIKGYYRRAASNMALGKFRAALRDYETVVKVKPHDKDAKMKYQECNKIVKQKAFERAIAGDEHKRSVVDSLDIESMTIEDEYSGPKLEDGKVTISFMKELMQWYKDQKKLHRKCAYQILVQVKEVLSKLSTLVETTLKETEKITVCGDTHGQFYDLLNIFELNGLPSETNPYIFNGDFVDRGSFSVEVILTLFGFKLLYPDHFHLLRGNHETDNMNQIYGFEGEVKAKYTAQMYELFSEVFEWLPLAQCINGKVLIMHGGLFSEDGVTLDDIRKIERNRQPPDSGPMCDLLWSDPQPQNGRSISKRGVSCQFGPDVTKAFLEENNLDYIIRSHEVKAEGYEVAHGGRCVTVFSAPNYCDQMGNKASYIHLQGSDLRPQFHQFTAVPHPNVKPMAYANTLLQLGMM [PPP5C]”, for which the “solubility in G1/S (log2)” value in the data set on HeLa Kyoto [1] worked out at 0.0833. Also, the results for the melting temperature in the data set on HeLa Kyoto [2] (cell cycle stage: G1/S) and with HeLa Kyoto [2] (cell cycle stage: mitosis) were 52.2 °C and 51.6 °C, respectively. For the same sequence, in the data set with HeLa Kyoto [3], the “solubility change mitosis (log2)” value is -0.207. Also, the thermal stability score in the data set on HeLa Kyoto [4] (setting [5]) was -0.0521; in the data set on HeLa Kyoto [4] (cell cycle stage: mitosis) it was -1.42.

For “MAMDSSLQARLFPGLAIKIQRSNGLIHSANVRTVNLEKSCVSVEWAEGGATKGKEIDFDDVAAINPELLQLLPLHPKDNLPLQENVTIQKQKRRSVNSKIPAPKESLRSRSTRMSTVSELRITAQENDMEVELPAAANSRKQFSVPPAPTRPSCPAVAEIPLRMVSEEMEEQVHSIRGSSSANPVNSVRRKSCLVKEVEKMKNKREEKKAQNSEMRMKRAQEYDSSFPNWEFARMIKEFRATLECHPLTMTDPIEEHRICVCVRKRPLNKQELAKKEIDVISIPSKCLLLVHEPKLKVDLTKYLENQAFCFDFAFDETASNEVVYRFTARPLVQTIFEGGKATCFAYGQTGSGKTHTMGGDLSGKAQNASKGIYAMASRDVFLLKNQPCYRKLGLEVYVTFFEIYNGKLFDLLNKKAKLRVLEDGKQQVQVVGLQEHLVNSADDVIKMIDMGSACRTSGQTFANSNSSRSHACFQIILRAKGRMHGKFSLVDLAGNERGADTSSADRQTRMEGAEINKSLLALKECIRALGQNKAHTPFRESKLTQVLRDSFIGENSRTCMIATISPGISSCEYTLNTLRYADRVKELSPHSGPSGEQLIQMETEEMEACSNGALIPGNLSKEEEELSSQMSSFNEAMTQIRELEEKAMEELKEIIQQGPDWLELSEMTEQPDYDLETFVNKAESALAQQAKHFSALRDVIKALRLAMQLEEQASRQISSKKRPQ [KIF2C]”, in the data set with HeLa Kyoto [1], the “solubility in G1/S (log2)” value is -0.0225. Also, the melting temperature in the data set with HeLa Kyoto [2] (cell cycle stage: G1/S) stood at 48.6 °C; with HeLa Kyoto [2] (cell cycle stage: mitosis) it was 49.5 °C. In the data set with HeLa Kyoto [3], the “solubility change mitosis (log2)” value was -0.0369. Besides, the figures for the thermal stability score in the data set with HeLa Kyoto [4] (setting [5]) and with HeLa Kyoto [4] (cell cycle stage: mitosis) were 2.01 and 3.27, respectively.

For the sequence “MAMMVFPREEKLSQDEIVLGTKAVIQGLETLRGEHRALLAPLVAPEAGEAEPGSQERCILLRRSLEAIELGLGEAQVILALSSHLGAVESEKQKLRAQVRRLVQENQWLREELAGTQQKLQRSEQAVAQLEEEKQHLLFMSQIRKLDEDASPNEEKGDVPKDTLDDLFPNEDEQSPAPSPGGGDVSGQHGGYEIPARLRTLHNLVIQYASQGRYEVAVPLCKQALEDLEKTSGHDHPDVATMLNILALVYRDQNKYKEAAHLLNDALAIREKTLGKDHPAVAATLNNLAVLYGKRGKYKEAEPLCKRALEIREKVLGKFHPDVAKQLSNLALLCQNQGKAEEVEYYYRRALEIYATRLGPDDPNVAKTKNNLASCYLKQGKYQDAETLYKEILTRAHEKEFGSVNGDNKPIWMHAEEREESKDKRRDSAPYGEYGSWYKACKVDSPTVNTTLRSLGALYRRQGKLEAAHTLEDCASRNRKQGLDPASQTKVVELLKDGSGRRGDRRSSRDMAGGAGPRSESDLEDVGPTAEWNGDGSGSLRRSGSFGKLRDALRRSSEMLVKKLQGGTPQEPPNPRMKRASSLNFLNKSVEEPTQPGGTGLSDSRTLSSSSMDLSRRSSLVG [KLC2]”, the “solubility in G1/S (log2)” value in the data set with HeLa Kyoto [1] amounted to 0.526. For the same sequence, the melting temperature worked out at 50 °C in the data set with HeLa Kyoto [2] (cell cycle stage: G1/S) and 50.1 °C in the data set with HeLa Kyoto [2] (cell cycle stage: mitosis). Further, the “solubility change mitosis (log2)” value with HeLa Kyoto [3] worked out at 0.0405. Besides, the thermal stability score with HeLa Kyoto [4] (setting [5]) was 0.627; with HeLa Kyoto [4] (cell cycle stage: mitosis), 1.01.

As to “MAMNYNAKDEVDGGPPCAPGGTAKTRRPDNTAFKQQRLPAWQPILTAGTVLPIFFIIGLIFIPIGIGIFVTSNNIREIEIDYTGTEPSSPCNKCLSPDVTPCFCTINFTLEKSFEGNVFMYYGLSNFYQNHRRYVKSRDDSQLNGDSSALLNPSKECEPYRRNEDKPIAPCGAIANSMFNDTLELFLIGNDSYPIPIALKKKGIAWWTDKNVKFRNPPGGDNLEERFKGTTKPVNWLKPVYMLDSDPDNNGFINEDFIVWMRTAALPTFRKLYRLIERKSDLHPTLPAGRYSLNVTYNYPVHYFDGRKRMILSTISWMGGKNPFLGIAYIAVGSISFLLGVVLLVINHKYRNSSNTADITI [TMEM30A]”, the “solubility in G1/S (log2)” value in the data set with HeLa Kyoto [1] was 0.428. The melting temperature turned out to be 54.2 °C with HeLa Kyoto [2] (cell cycle stage: G1/S) and 54.6 °C in the data set on HeLa Kyoto [2] (cell cycle stage: mitosis). Moreover, in the data set with HeLa Kyoto [3], the “solubility change mitosis (log2)” value was -0.17. The thermal stability score is -0.78 with HeLa Kyoto [4] (setting [5]) and 0.594 in the data set with HeLa Kyoto [4] (cell cycle stage: mitosis).

Consider “MANINLKEITLIVGVVTACYWNSLFCGFVFDDVSAILDNKDLHPSTPLKTLFQNDFWGTPMSEERSHKSYRPLTVLTFRLNYLLSELKPMSYHLLNMIFHAVVSVIFLKVCKLFLDNKSSVIASLLFAVHPIHTEAVTGVVGRAELLSSIFFLAAFLSYTRSKGPDNSIIWTPIALTVFLVAVATLCKEQGITVVGICCVYEVFIAQGYTLPLLCTTAGQFLRGKGSIPFSMLQTLVKLIVLMFSTLLLVVIRVQVIQSQLPVFTRFDNPAAVSPTPTRQLTFNYLLPVNAWLLLNPSELCCDWTMGTIPLIESLLDIRNLATFTFFCFLGMLGVFSIRYSGDSSKTVLMALCLMALPFIPASNLFFPVGFVVAERVLYVPSMGFCILVAHGWQKISTKSVFKKLSWICLSMVILTHSLKTFHRNWDWESEYTLFMSALKVNKNNAKLWNNVGHALENEKNFERALKYFLQATHVQPDDIGAHMNVGRTYKNLNRTKEAEESYMMAKSLMPQIIPGKKYAARIAPNHLNVYINLANLIRANESRLEEADQLYRQAISMRPDFKQAYISRGELLLKMNKPLKAKEAYLKALELDRNNADLWYNLAIVHIELKEPNEALKKNFNRALELNPKHKLALFNSAIVMQESGEVKLRPEARKRLLSYINEEPLDANGYFNLGMLAMDDKKDNEAEIWMKKAIKLQADFRSALFNLALLYSQTAKELKALPILEELLRYYPDHIKGLILKGDILMNQKKDILGAKKCFERILEMDPSNVQGKHNLCVVYFEEKDLLKAERCLLETLALAPHEEYIQRHLNIVRDKISSSSFIEPIFPTSKISSVEGKKIPTESVKEIRGESRQTQIVKTSDNKSQSKSNKQLGKNGDEETPHKTTKDIKEIEKKRVAALKRLEEIERILNGE [TMTC3]”, for which the “solubility in G1/S (log2)” value in the data set with HeLa Kyoto [1] is -0.0354. Further, the melting temperature amounted to 52.9 °C in the data set on HeLa Kyoto [2] (cell cycle stage: G1/S) and 53.1 °C with HeLa Kyoto [2] (cell cycle stage: mitosis). Moreover, the “solubility change mitosis (log2)” value in the data set with HeLa Kyoto [3] was -0.0802. Besides, the thermal stability score with HeLa Kyoto [4] (setting [5]) turned out to be 0.0389; with HeLa Kyoto [4] (cell cycle stage: mitosis), 0.555.

“MANNDAVLKRLEQKGAEADQIIEYLKQQVSLLKEKAILQATLREEKKLRVENAKLKKEIEELKQELIQAEIQNGVKQIPFPSGTPLHANSMVSENVIQSTAVTTVSSGTKEQIKGGTGDEKKAKEKIEKKGEKKEKKQQSIAGSADSKPIDVSRLDLRIGCIITARKHPDADSLYVEEVDVGEIAPRTVVSGLVNHVPLEQMQNRMVILLCNLKPAKMRGVLSQAMVMCASSPEKIEILAPPNGSVPGDRITFDAFPGEPDKELNPKKKIWEQIQPDLHTNDECVATYKGVPFEVKGKGVCRAQTMSNSGIK [AIMP1]”: the “solubility in G1/S (log2)” value in the data set on HeLa Kyoto [1] amounted to 0.468. The melting temperature with HeLa Kyoto [2] (cell cycle stage: G1/S) is 48.3 °C; in the data set with HeLa Kyoto [2] (cell cycle stage: mitosis) it was 49.1 °C. Further, the “solubility change mitosis (log2)” value in the data set on HeLa Kyoto [3] came to 0.02. For the same sequence, the thermal stability score was -0.0166 in the data set with HeLa Kyoto [4] (setting [5]) and 1.24 in the data set with HeLa Kyoto [4] (cell cycle stage: mitosis).
